Assay results reported in PMC3969020.
Where a chain is given by its changes, count along the chain named. Numbers in names are those of the source.

B1: Horse liver alcohol dehydrogenase (ADH), E isoenzyme (Equus caballus; V208A) (protein)
chain: STAGKVIKCKAAVLWEEKKPFSIEEVEVAPPKAHEVRIKMVATGICRSDDHVVSGTLVTPLPVIAGHEAAGIVESIGEGVTTVRPGDKVIPLFTPQCGKCRVCKHPEGNFCLKNDLSMPRGTMQDGTSRFTCRGKPIHHFLGTSTFSQYTVVDEISVAKIDAASPLEKVCLIGCGFSTGYGSAVKVAKVTQGSTCAVFGLGGVGLSAIMGCKAAGAARIIGVDINKDKFAKAKEVGATECVNPQDYKKPIQEVLTEMSNGGVDFSFEVIGRLDTMVTALSCCQEAYGVSVIVGVPPDSQNLSMNPMLLLSGRTWKGAIFGGFKSKDSVPKLVADFMAKKFALDPLITHVLPFEKINEGFDLLRSGESIRTILTF
B2: Horse liver alcohol dehydrogenase (ADH), E isoenzyme (Equus caballus) (protein)
chain: B1 chain with A207V

Substrate: OCc1ccccc1
Experiment: steady-state kinetics
Format: biochemical, Equus caballus
Conditions: NAD+; catalytic zinc; 25.0 °C

Protein	Km [µM]
B1	13 ± 1
B2	14 ± 1
